From patent publication US20230272048A1 (UNIVERSITY OF MELBOURNE, published 2023) come the findings set out here.

The target of test [1] is AD8 WT Env (gp160, from lysed pseudovirions / on pseudovirus) (HIV-1 AD8, clade B). Put plainly: cell-based or functional assay.
Test [2] concerns the target T1, S364A (HIV-1).
T1 construct: full-length Env of lysed pseudovirus; HXB-2 numbering
Put plainly: capture ELISA on Env of lysed AD8 pseudovirus, % of WT. (In general: In an ELISA, binding on a coated surface is turned into a signal by an enzyme label.)

Test [3] deals with T2, SS-B (human, UniProt P05455 1-408).
T2 sequence (looked up): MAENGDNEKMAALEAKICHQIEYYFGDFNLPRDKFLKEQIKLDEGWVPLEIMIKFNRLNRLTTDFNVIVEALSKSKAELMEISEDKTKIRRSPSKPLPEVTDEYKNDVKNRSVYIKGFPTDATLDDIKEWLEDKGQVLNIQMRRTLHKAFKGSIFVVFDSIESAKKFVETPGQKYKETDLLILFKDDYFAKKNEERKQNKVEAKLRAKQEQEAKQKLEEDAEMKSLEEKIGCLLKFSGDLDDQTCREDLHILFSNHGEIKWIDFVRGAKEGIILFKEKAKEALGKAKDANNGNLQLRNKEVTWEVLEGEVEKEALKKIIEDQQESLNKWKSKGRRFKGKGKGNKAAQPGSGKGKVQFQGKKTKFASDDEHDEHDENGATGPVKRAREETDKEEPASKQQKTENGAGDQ
Put plainly: single autoantigen ELISA (AESKULISA ANA-8Pro), FIG. 9A; antibody printed as '1879'.

Test [4] addresses T3, Jo-1 (human, UniProt P12081 1-509).
T3 sequence (looked up): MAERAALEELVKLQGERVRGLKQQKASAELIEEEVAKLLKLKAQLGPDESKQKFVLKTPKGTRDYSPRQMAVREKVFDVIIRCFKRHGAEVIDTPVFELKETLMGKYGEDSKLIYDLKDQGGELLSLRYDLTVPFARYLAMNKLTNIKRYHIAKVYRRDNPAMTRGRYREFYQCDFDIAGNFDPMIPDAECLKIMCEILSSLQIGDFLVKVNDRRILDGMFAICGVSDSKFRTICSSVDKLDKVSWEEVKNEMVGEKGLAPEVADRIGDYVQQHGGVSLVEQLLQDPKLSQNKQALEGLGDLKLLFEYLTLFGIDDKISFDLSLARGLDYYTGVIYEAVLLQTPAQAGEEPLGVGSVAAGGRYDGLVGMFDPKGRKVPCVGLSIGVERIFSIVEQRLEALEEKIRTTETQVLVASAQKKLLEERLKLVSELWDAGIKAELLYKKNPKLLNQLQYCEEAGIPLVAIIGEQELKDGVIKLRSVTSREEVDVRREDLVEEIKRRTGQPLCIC
The test is described as above.

In test [5] the target is T4, CenpB (human, UniProt P07199 1-599).
T4 sequence (looked up): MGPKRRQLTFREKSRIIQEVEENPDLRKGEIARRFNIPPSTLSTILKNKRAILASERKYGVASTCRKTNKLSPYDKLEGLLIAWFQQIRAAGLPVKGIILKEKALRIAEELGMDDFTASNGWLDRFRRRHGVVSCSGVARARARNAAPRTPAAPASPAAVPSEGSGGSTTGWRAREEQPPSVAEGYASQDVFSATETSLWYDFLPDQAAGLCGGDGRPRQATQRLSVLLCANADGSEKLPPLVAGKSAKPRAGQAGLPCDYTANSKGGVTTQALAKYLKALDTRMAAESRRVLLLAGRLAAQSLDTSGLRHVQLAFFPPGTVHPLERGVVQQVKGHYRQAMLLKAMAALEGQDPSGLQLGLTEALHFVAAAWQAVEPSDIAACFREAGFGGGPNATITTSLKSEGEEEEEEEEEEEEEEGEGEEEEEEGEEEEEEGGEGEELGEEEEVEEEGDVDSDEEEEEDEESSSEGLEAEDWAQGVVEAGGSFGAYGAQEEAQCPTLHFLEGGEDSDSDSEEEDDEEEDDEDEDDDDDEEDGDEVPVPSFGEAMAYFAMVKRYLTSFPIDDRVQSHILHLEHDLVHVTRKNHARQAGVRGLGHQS
Described as above.

The target in test [6] is T5, Scl-70 (human, UniProt P11387 1-765).
T5 sequence (looked up): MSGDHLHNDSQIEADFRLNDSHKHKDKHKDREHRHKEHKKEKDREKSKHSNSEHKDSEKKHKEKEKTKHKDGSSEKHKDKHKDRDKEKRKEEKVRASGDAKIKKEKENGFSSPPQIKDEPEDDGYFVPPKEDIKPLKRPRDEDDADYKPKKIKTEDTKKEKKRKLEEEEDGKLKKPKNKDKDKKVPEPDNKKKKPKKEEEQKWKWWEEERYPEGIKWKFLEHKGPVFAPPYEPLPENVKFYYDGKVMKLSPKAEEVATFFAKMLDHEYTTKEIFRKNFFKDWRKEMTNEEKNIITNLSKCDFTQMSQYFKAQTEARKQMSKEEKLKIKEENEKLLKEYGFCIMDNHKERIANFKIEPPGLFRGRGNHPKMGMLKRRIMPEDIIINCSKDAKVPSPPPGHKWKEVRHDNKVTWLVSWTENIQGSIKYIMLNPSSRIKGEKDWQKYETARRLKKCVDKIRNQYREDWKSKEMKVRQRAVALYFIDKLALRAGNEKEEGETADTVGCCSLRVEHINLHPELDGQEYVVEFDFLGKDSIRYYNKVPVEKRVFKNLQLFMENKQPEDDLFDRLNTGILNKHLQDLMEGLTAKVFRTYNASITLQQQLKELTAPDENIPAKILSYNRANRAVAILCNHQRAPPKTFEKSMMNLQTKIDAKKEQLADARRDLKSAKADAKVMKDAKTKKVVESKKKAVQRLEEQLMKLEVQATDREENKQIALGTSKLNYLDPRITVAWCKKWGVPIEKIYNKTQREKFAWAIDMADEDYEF
The test is described as above.

For test [7], the target named is T2, SS-B. Put plainly: single autoantigen ELISA (AESKULISA ANA-8Pro), FIG. 9A.
The target of test [8] is T5, Scl-70. The test is described as above.
Test [9] has as its target T6, monomeric AD8 gp120 (HIV-1 AD8, clade B).
T6 construct: also called monomeric gp120; monomeric gp120 form of Env
Put plainly: direct ELISA, plates coated with 1 µg/ml Env (FIG. 6C).

B1: MEL-1872 (antibody)
VH: KVQLRESGPSLVKPSQTLSLTCTASGFSLSDKAVGWVRQAPGQPLEWLGTIDTTGNAVYNPGLKSRLSITKDNSKSQVSLSLSSVTTEDSATYHCSTVHQKTRRSCPSDYSFICDCEGTGSHCCRASNCPYYCNYGRDRMCTGRSNIHEWHVDAWGQGLLVTVSS
VL: QAVLTQPSSVSGSLGQRVSTTCSGSSSNVGNGYVSWYQLIPGSAPRTLIYGDTSRASGVPDRFSGSRSGNTVTLTISSLQAEDEADYFCASAEDGSSNAVFGRGTTLTV
notes: also called H 1872; BrNAb MEL-1872
With B1, the “IC50 (read off the curve); axis Neutralisation (%), panel AD8” value in [1] was ~7 ng/mL. The “Env binding (%) at antibody EC50” value in test [2] was found to be 75%. The binding result in test [3], in test [4], in test [5] and in test [6] was “no binding (tested: 100 µg/ml)” each time.

B2: MEL-2129 (antibody)
VH: KVQLRESGPSLVKPSQTLSLTCTASGFSLSDKAVGWVRQAPGKALEWLGSIDTGGNAGYNPGLKSRLSITKGNSKSQVSLSVSSVTTEDSATYYCSTVHQKTRRSCPVDYYYSCDCEGSGSHCCSASNCPYYCKYGRDRVCTDKHTYSYEWYVDAWGQGLLVTVSS
VL: B1 VL
notes: also called BrNAb MEL-2129
For B2, the binding result in test [7] and in [8] was “no binding (tested: 100 µg/ml)” each time. Besides, in test [2], the “Env binding (%) at antibody EC50” value was determined as 42%.

B3: MEL-1842 (antibody)
VH: KVQLQESGPSLVKPSQTLSLTCTASGFSLSDKAVGWVRQAPGQALEWLGSIDTGGNADYNPGLKSRLSITKDNAKSQVSLSVSSVTTEGSATYYCSTVHQKTLRSCPSDYPYICDCEDTGSHCCRATNCPYYCNHGRDRMCTGRTYTYEWHVEAWGQGLLVTVSS
VL: B1 VL
notes: also called H 1842; BrNAb MEL-1842
Regarding B3, the binding result was “binds” in test [9], “no binding (tested: 100 µg/ml)” in [7] and “no binding (tested: 100 µg/ml)” in test [8].
